We go through two molecules from article PMC2195994 (The Journal of Cell Biology, 2001).

Sequences and labels used below:
B1: Cdc42HsQ61L (natural protein)
chain: not shown

Common to all, as to assay: far-Western, overlay or dot blot
One experiment concerns the target T1, GST–IRS-58 (1–432) (human, UniProt Q9UQB8 1-432).
T1 sequence (looked up): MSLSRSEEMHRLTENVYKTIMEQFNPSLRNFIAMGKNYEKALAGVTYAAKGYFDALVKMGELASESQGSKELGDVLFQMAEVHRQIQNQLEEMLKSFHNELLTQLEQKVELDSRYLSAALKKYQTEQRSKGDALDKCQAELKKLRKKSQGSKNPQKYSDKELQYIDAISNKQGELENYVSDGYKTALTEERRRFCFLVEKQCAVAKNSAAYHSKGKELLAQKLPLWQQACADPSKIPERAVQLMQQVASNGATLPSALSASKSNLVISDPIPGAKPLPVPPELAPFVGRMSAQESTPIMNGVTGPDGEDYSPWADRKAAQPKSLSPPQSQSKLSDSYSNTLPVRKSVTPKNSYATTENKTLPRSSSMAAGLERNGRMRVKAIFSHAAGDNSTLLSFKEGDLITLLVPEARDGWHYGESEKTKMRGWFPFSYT

Another experiment concerns the target T2, GST–IRS-58 (1–358) (human, UniProt Q9UQB8 1-358).
T2 sequence (looked up): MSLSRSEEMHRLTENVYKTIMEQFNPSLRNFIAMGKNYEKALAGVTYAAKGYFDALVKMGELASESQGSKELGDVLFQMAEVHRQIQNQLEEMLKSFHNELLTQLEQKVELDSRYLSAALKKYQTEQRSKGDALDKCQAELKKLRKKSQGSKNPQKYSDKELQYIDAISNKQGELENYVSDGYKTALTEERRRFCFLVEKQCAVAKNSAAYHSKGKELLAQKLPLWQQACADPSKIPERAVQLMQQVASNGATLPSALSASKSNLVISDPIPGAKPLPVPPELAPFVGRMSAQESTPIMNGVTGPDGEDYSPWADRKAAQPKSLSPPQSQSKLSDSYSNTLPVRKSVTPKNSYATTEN

Another experiment has as its target Cdc42Hs L61C40 (human, UniProt P60953-1 1-191, L61 | C40).
The experiment “Cdc42HsQ61L” deals with B1.

As to B1, the binding result with GST–IRS-58 (1–432) and with GST–IRS-58 (1–358) was “binds” in each case.

B2: IRS-58–GST fusion protein (202–305 amino acid residues) (domain or fragment, human, UniProt Q9UQB8 202-305, looked up)
chain: CAVAKNSAAYHSKGKELLAQKLPLWQQACADPSKIPERAVQLMQQVASNGATLPSALSASKSNLVISDPIPGAKPLPVPPELAPFVGRMSAQESTPIMNGVTGP
Take B2: the binding result with Cdc42Hs L61C40 and in the experiment with Cdc42HsQ61L was “binds” in each case.
